Assays:
[1] = biological target: T1, FMNL1/KW13 peptide on HLA-A*02:01 (human); assay: multimer staining
T1 peptide: RLPERMTTL

[2] = biological target: T2, FRL (murine FMNL1 homologue) peptide on HLA-A*02:01 (human); assay: killing
T2 peptide: RLPERMNTL

B1: TCR of T cell clone SC22 (Vα14J41; Vβ14J2.5) (TCR)
alpha TRAV38-2/DV8*01; Vα14 TRAJ41*01; J41 CDR3: AYENSGYALNF
beta TRBV27*01; Vβ14 TRBJ2-5*01; Jβ2.5 CDR3: ASSFLGETQYF
binding result [1]: recognises | binding result [2]: recognises
